Laboratory results: patent US20230256017A1, “METHODS OF MAKING CHIMERIC ANTIGEN RECEPTOR-EXPRESSING CELLS” (Novartis AG, priority 2020, published 2023)

Test system: T cells
Experiment: T cell expansion with cytokines after TCR stimulation (cell surface staining)
Format: cell-based
Details: αCD3/αCD28 beads plus indicated cytokine
Protocol: Previously frozen T cells were thawed and contacted with αCD3/αCD28 dynal beads (cell to bead ratio of 1 to 3) in the presence of indicated cytokines at day 0. From day 3, twice more T cell growth media (RPMI1640, 10% FBS, 2 mM L-glutamin, 100 µM non-essential amino acids, 1 mM sodium pyruvate, 10 mM Hepes, 55 µM β-mercaptoethanol, 10% FBS, and 100 U/ml of penicillin-streptomycin) was added to the plate with indicated cytokines (without cytokine, rhIL2 (50 IU/ml, Novartis), IL6 (10 ng/ml, R&D systems), IL7 (10 ng/ml, Peprotech), IL15 (10 ng/ml, Peprotech), and IL21 (10 ng/ml, Peprotech)) at day 3, 5, 6, 9, 12, 15, and 18.
Cells were harvested at indicated time points and then stained with live/dead dye (eFluro780, eBioscience), CD3 (BioLegend, clone#: OKT3), CD4 (BioLegend, clone#: OKT4), CD8 (BD Bioscience, clone#: RPA-T8), CD45RO (BioLegend, clone#: UCHL1), CCR7 (BioLegend, clone#: G043H7), CD27 (BD Horizon, clone#: L128), CD127 (BioLegend, clone#: A019D5), CD57 (BioLegend, clone#: HCD57), CD126 (BioLegend, clon#: UV4), and CD130 (R&D Systems, clone#: 28126) antibodies. The cells were acquired by FACS Fortessa and then FlowJo program was used for data analysis.

B1: IL7: cytokine present during activation of T cells with αCD3αCD28 beads (protein, UniProt P13232 26-177, looked up)
Interleukin-7: DCDIEGKDGKQYESVLMVSIDQLLDSMKEIGSNCLNNEFNFFKRHICDANKEGMFLFRAARKLRQFLKMNSTGDFDLHLLKVSEGTTILLNCTGQVKGRKPAALGEAQPTKSLEENKSLKEQKKLNDLCFLKRLLQEIKTCWNKILMGTKEH
**Q.** With B1 as the molecule, how does the T cell expansion read?
**A.** enhanced T cell expansion
